In patent publication US20120208237A1 (Novo Nordisk, published 2012):
One block for each molecule: values may come before it.

Assays:
[1] = molecular target: recombinant soluble KIR2DL1 (entire extracellular domain, produced in E. coli) (human) (UniProt P43626); assay: Biacore, KIR2DL1 chip; first Ab 1-6F1 bound
[2] = molecular target: recombinant soluble KIR2DL1 (entire extracellular domain, produced in E. coli) (human) (UniProt P43626); assay: Biacore, KIR2DL1 chip; first Ab 1-6F5 bound
[3] = molecular target: recombinant soluble KIR2DL1 (entire extracellular domain, produced in E. coli) (human) (UniProt P43626); assay: Biacore, KIR2DL1 chip; first Ab 1-7F9 bound
[4] = molecular target: recombinant soluble KIR2DL3 (entire extracellular domain, produced in E. coli) (human) (UniProt P43628); assay: Biacore, KIR2DL3 chip; first Ab 1-4F1 bound
[5] = molecular target: recombinant soluble KIR2DL3 (entire extracellular domain, produced in E. coli) (human) (UniProt P43628); assay: Biacore, KIR2DL3 chip; first Ab 1-6F1 bound
[6] = molecular target: recombinant soluble KIR2DL3 (entire extracellular domain, produced in E. coli) (human) (UniProt P43628); assay: Biacore, KIR2DL3 chip; first Ab 1-6F5 bound
[7] = molecular target: recombinant soluble KIR2DL3 (entire extracellular domain, produced in E. coli) (human) (UniProt P43628); assay: Biacore, KIR2DL3 chip; first Ab 1-7F9 bound
[8] = molecular target: immobilized KIR2DS1 protein (human) (UniProt Q14954); assay: Biacore, KIR2DS1 chip; first Ab 1-7F9 bound
[9] = molecular target: recombinant soluble KIR2DL1 (entire extracellular domain, produced in E. coli) (human) (UniProt P43626); assay: Biacore competition, KIR2DL1 chip; competitor (second Ab) EB6
[10] = molecular target: recombinant soluble KIR2DL1 (entire extracellular domain, produced in E. coli) (human) (UniProt P43626); assay: Biacore competition, KIR2DL1 chip; competitor (second Ab) 1-4F1
[11] = molecular target: recombinant soluble KIR2DL1 (entire extracellular domain, produced in E. coli) (human) (UniProt P43626); assay: Biacore competition, KIR2DL1 chip; competitor (second Ab) 1-6F1
[12] = molecular target: recombinant soluble KIR2DL1 (entire extracellular domain, produced in E. coli) (human) (UniProt P43626); assay: Biacore competition, KIR2DL1 chip; competitor (second Ab) 1-6F5
[13] = molecular target: recombinant soluble KIR2DL1 (entire extracellular domain, produced in E. coli) (human) (UniProt P43626); assay: Biacore competition, KIR2DL1 chip; competitor (second Ab) 1-7F9
[14] = molecular target: recombinant soluble KIR2DL1 (entire extracellular domain, produced in E. coli) (human) (UniProt P43626); assay: Biacore competition, KIR2DL1 chip; competitor (second Ab) Pan2D
[15] = molecular target: recombinant soluble KIR2DL1 (entire extracellular domain, produced in E. coli) (human) (UniProt P43626); assay: Biacore, KIR2DL1 chip; direct binding (field of first Ab 1-6F1)
[16] = molecular target: recombinant soluble KIR2DL1 (entire extracellular domain, produced in E. coli) (human) (UniProt P43626); assay: Biacore, KIR2DL1 chip; direct binding (field of first Ab 1-6F5)
[17] = molecular target: recombinant soluble KIR2DL1 (entire extracellular domain, produced in E. coli) (human) (UniProt P43626); assay: Biacore, KIR2DL1 chip; direct binding (field of first Ab 1-7F9)
[18] = molecular target: recombinant soluble KIR2DL3 (entire extracellular domain, produced in E. coli) (human) (UniProt P43628); assay: Biacore competition, KIR2DL3 chip; competitor (second Ab) 1-4F1
[19] = molecular target: recombinant soluble KIR2DL3 (entire extracellular domain, produced in E. coli) (human) (UniProt P43628); assay: Biacore competition, KIR2DL3 chip; competitor (second Ab) 1-6F1
[20] = molecular target: recombinant soluble KIR2DL3 (entire extracellular domain, produced in E. coli) (human) (UniProt P43628); assay: Biacore competition, KIR2DL3 chip; competitor (second Ab) 1-6F5
[21] = molecular target: recombinant soluble KIR2DL3 (entire extracellular domain, produced in E. coli) (human) (UniProt P43628); assay: Biacore competition, KIR2DL3 chip; competitor (second Ab) 1-7F9
[22] = molecular target: recombinant soluble KIR2DL3 (entire extracellular domain, produced in E. coli) (human) (UniProt P43628); assay: Biacore competition, KIR2DL3 chip; competitor (second Ab) GL183
[23] = molecular target: recombinant soluble KIR2DL3 (entire extracellular domain, produced in E. coli) (human) (UniProt P43628); assay: Biacore competition, KIR2DL3 chip; competitor (second Ab) Pan2D
[24] = molecular target: recombinant soluble KIR2DL3 (entire extracellular domain, produced in E. coli) (human) (UniProt P43628); assay: Biacore, KIR2DL3 chip; direct binding (field of first Ab 1-4F1)
[25] = molecular target: recombinant soluble KIR2DL3 (entire extracellular domain, produced in E. coli) (human) (UniProt P43628); assay: Biacore, KIR2DL3 chip; direct binding (field of first Ab 1-6F1)
[26] = molecular target: recombinant soluble KIR2DL3 (entire extracellular domain, produced in E. coli) (human) (UniProt P43628); assay: Biacore, KIR2DL3 chip; direct binding (field of first Ab 1-6F5)
[27] = molecular target: recombinant soluble KIR2DL3 (entire extracellular domain, produced in E. coli) (human) (UniProt P43628); assay: Biacore, KIR2DL3 chip; direct binding (field of first Ab 1-7F9)
[28] = molecular target: immobilized KIR2DS1 protein (human) (UniProt Q14954); assay: Biacore competition, KIR2DS1 chip; competitor (second Ab) 1-4F1
[29] = molecular target: immobilized KIR2DS1 protein (human) (UniProt Q14954); assay: Biacore competition, KIR2DS1 chip; competitor (second Ab) 1-7F9
[30] = molecular target: immobilized KIR2DS1 protein (human) (UniProt Q14954); assay: Biacore competition, KIR2DS1 chip; competitor (second Ab) Pan2D
[31] = molecular target: immobilized KIR2DS1 protein (human) (UniProt Q14954); assay: Biacore, KIR2DS1 chip; direct binding (field of first Ab 1-7F9)
[32] = molecular target: recombinant soluble KIR2DL1 (entire extracellular domain, produced in E. coli) (human) (UniProt P43626); assay: Biacore SPR, antibody over immobilized KIR2DL1 (bivalent binding)
[33] = molecular target: recombinant soluble KIR2DL3 (entire extracellular domain, produced in E. coli) (human) (UniProt P43628); assay: Biacore SPR, antibody over immobilized KIR2DL3 (bivalent binding)
[34] = molecular target: recombinant soluble KIR2DL1 (entire extracellular domain, produced in E. coli) (human) (UniProt P43626); assay: Biacore competition (Example 10), KIR2DL1 chip; competitor (second Ab) 1-7F9
[35] = molecular target: recombinant soluble KIR2DL1 (entire extracellular domain, produced in E. coli) (human) (UniProt P43626); assay: Biacore competition (Example 10), KIR2DL1 chip; competitor (second Ab) Pan2D
[36] = molecular target: recombinant soluble KIR2DL1 (entire extracellular domain, produced in E. coli) (human) (UniProt P43626); assay: Biacore competition (Example 10), KIR2DL1 chip; competitor (second Ab) DF200 (self)
[37] = molecular target: recombinant soluble KIR2DL3 (entire extracellular domain, produced in E. coli) (human) (UniProt P43628); assay: Biacore competition (Example 10), KIR2DL3 chip; competitor (second Ab) 1-7F9
[38] = molecular target: recombinant soluble KIR2DL3 (entire extracellular domain, produced in E. coli) (human) (UniProt P43628); assay: Biacore competition (Example 10), KIR2DL3 chip; competitor (second Ab) Pan2D
[39] = molecular target: recombinant soluble KIR2DL3 (entire extracellular domain, produced in E. coli) (human) (UniProt P43628); assay: Biacore competition (Example 10), KIR2DL3 chip; competitor (second Ab) DF200 (self)
[40] = molecular target: recombinant soluble KIR2DL3 (entire extracellular domain, produced in E. coli) (human) (UniProt P43628); assay: Biacore competition, KIR2DL3 chip; competitor (second Ab) DF200
[41] = molecular target: recombinant soluble KIR2DL1 (entire extracellular domain, produced in E. coli) (human) (UniProt P43626); assay: Biacore, KIR2DL1 chip; first Ab EB6 bound
[42] = molecular target: recombinant soluble KIR2DL1 (entire extracellular domain, produced in E. coli) (human) (UniProt P43626); assay: Biacore, KIR2DL1 chip; direct binding (field of first Ab EB6)
[43] = molecular target: recombinant soluble KIR2DL1 (entire extracellular domain, produced in E. coli) (human) (UniProt P43626); assay: Biacore competition, KIR2DL1 chip; competitor (second Ab) DF200
[44] = molecular target: recombinant soluble KIR2DL1 (entire extracellular domain, produced in E. coli) (human) (UniProt P43626); assay: Biacore competition, KIR2DL1 chip; competitor (second Ab) EB6 (self)
[45] = molecular target: T1, KIR2DS3 expressed on transfected cells (human, UniProt Q14952 22-304); assay: flow cytometry on cells transfected with KIR2DS3 (fifth column; its head is printed KIRDLS1 a second time, the legend's order gives KIR2DS3)
T1 construct: whole, on cells
Method in brief: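 Binding of human anti-KIR monoclonal antibodies to cells stably transfected with KIR2DS3 was measured by flow cytometry. Cells were incubated with the antibody at various concentrations (typically 0-50 μg/ml) in DMEM medium containing 2% FCS. They were then washed and stained with an APC-conjugated secondary antibody specific for human IgG, with all incubations and washes at 0-4° C. Cells were resuspended in PBS and analysed on a FACScalibur or FACScanto.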

immobilized KIR2DS1 protein (human), sequence (Q14954 22-245 limits assumed): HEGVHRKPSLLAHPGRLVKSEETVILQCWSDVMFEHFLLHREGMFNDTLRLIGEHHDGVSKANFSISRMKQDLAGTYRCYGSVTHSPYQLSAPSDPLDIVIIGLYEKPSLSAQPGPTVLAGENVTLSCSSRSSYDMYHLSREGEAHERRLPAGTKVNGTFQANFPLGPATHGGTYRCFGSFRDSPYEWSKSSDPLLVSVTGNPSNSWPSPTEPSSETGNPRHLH
T1 sequence (Q14952 22-304): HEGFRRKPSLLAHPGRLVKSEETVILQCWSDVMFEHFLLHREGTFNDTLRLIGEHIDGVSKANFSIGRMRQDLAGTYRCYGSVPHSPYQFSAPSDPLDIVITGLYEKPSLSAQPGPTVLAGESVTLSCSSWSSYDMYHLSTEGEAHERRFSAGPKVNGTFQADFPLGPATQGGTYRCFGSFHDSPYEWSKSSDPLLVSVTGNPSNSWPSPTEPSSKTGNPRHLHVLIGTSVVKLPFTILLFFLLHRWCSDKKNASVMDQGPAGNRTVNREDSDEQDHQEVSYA

Molecule: murine monoclonal antibody EB6
RU, second antibody after first antibody [41]: 200 RU
RU, second antibody after first antibody [1]: 320 RU
RU, second antibody after first antibody [3]: 180 RU
RU, second antibody alone [42]: 460 RU
% inhibition of second antibody binding [10]: 48%
% inhibition of second antibody binding [11]: 23%
% inhibition of second antibody binding [13]: 65%
% inhibition of second antibody binding [43]: 60%
% inhibition of second antibody binding [14]: 40%
RU, second antibody alone [15]: 260 RU
RU, second antibody alone [17]: 460 RU
% inhibition of second antibody binding [44]: 57%

B1: murine monoclonal antibody NKVSF1 (Pan2D) (antibody, V domains shown)
VH: EVQLQQSGTVLARPGASVKMSCKASGYTFTSYWMHWMKQRPGQGLEWIGTIYPGNSDTNYNQKFKGKAKLTAVTSTNTAYMELSSLTNEDSAVYYCSRPTTATRSSAMDYWGQGTSVTVSS
VL: QIVLTQSPASMSASLGERVTMTCTASSSVSSSYLYWYQQKPGSSPKLWIYSTSNLASGVPARFSGSGSGTSYSLTISSMEAEDAATYYCHQYHRSPPTFGGGTKLEIKR
notes: Murine mAb, bought from Serotec (MCA2243)
binding result [45]: no binding (tested: 1 µg/ml)

Now from value to molecule:

RU, second antibody after first antibody [1]: 310 RU
RU, second antibody after first antibody [2]: 290 RU
RU, second antibody after first antibody [3]: 545 RU
RU, second antibody after first antibody [4]: 210 RU
RU, second antibody after first antibody [5]: 760 RU
RU, second antibody after first antibody [6]: 760 RU
RU, second antibody after first antibody [7]: 450 RU
RU, second antibody after first antibody [8]: 1090 RU
% inhibition of second antibody binding [9]: 90%
% inhibition of second antibody binding [10]: 92%
% inhibition of second antibody binding [11]: 15%
% inhibition of second antibody binding [12]: 15%
% inhibition of second antibody binding [13]: 27%
% inhibition of second antibody binding [14]: 80%
RU, second antibody alone [15]: 350 RU
RU, second antibody alone [16]: 350 RU
RU, second antibody alone [17]: 600 RU
% inhibition of second antibody binding [18]: 75%
% inhibition of second antibody binding [19]: 16%
% inhibition of second antibody binding [20]: 4%
% inhibition of second antibody binding [21]: 62%
% inhibition of second antibody binding [22]: 20%
% inhibition of second antibody binding [23]: 75%
RU, second antibody alone [24]: 1140 RU
RU, second antibody alone [25]: 790 RU
RU, second antibody alone [26]: 800 RU
RU, second antibody alone [27]: 770 RU
% inhibition of second antibody binding [28]: 87%
% inhibition of second antibody binding [29]: 15%
% inhibition of second antibody binding [30]: 70%
RU, second antibody alone [31]: 900 RU
Kd [32]: 10.9 nM
Kd [33]: 2 nM
% inhibition of second antibody binding [34]: 17%
% inhibition of second antibody binding [35]: 85%
% inhibition of second antibody binding [36]: 80%
% inhibition of second antibody binding [37]: 80%
% inhibition of second antibody binding [38]: 50%
% inhibition of second antibody binding [39]: 85%
Molecule: murine monoclonal antibody DF200

RU, second antibody after first antibody [4]: 330 RU
RU, second antibody after first antibody [5]: 570 RU
RU, second antibody after first antibody [7]: 200 RU
% inhibition of second antibody binding [18]: 75%
% inhibition of second antibody binding [19]: 18%
% inhibition of second antibody binding [21]: 76%
% inhibition of second antibody binding [40]: 8%
% inhibition of second antibody binding [23]: 40%
RU, second antibody alone [24]: 1240 RU
RU, second antibody alone [25]: 620 RU
RU, second antibody alone [27]: 800 RU
Molecule: murine monoclonal antibody GL183
